From paper PMC12607020, “NITAC-mediated ISGylation of eIF4E2 attenuates GSK3β proline-directed kinase activity, conferring cytoprotection” (The Journal of Biological Chemistry, 2025)

T1: GST-eIF4E2 (UniProt O60573 1-245)
T1 construct: eukaryotic translation initiation factor 4E family member 2 (eIF4E2, 4EHP); also called GST-tagged eIF4E2; source: E. coli BL21, purified (glutathione sepharose beads)
T1 sequence (looked up): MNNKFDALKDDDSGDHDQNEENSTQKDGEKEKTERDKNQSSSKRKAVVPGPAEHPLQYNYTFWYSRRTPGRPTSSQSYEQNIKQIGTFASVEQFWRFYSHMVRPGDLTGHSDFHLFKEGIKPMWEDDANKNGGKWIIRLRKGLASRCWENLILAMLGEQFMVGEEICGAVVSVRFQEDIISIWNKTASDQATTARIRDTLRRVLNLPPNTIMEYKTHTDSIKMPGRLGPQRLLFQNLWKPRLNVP


Molecular target: T1, GST-eIF4E2
Test: pull-down; GST pull-down: 1 nM His6-tagged and 1 nM GST-tagged protein in 50 mM Hepes pH 7.5, 50 mM NaCl, 2 mM EDTA, 0.1% NP-40, 10% glycerol, 2 h at 4 °C; glutathione-sepharose beads; immunoblot
Details: both partners purified

| Binder | binding result |
| --- | --- |
| His6-tagged Nb.28E11 (VHH, nanobody from a synthetic yeast-display library; also called His6-Nb.28E11; source: E. coli BL21, purified (Ni-NTA)) VHH: QVQLQESGGGLVQAGGSLRLSCAASGRTFSSYAMGWFRQAPGKEREFVAAISSGGSITNYADSVKGRFTISRDNAKNTVYLQMNSLKPEDTAVYYCAARYHSLYYGYWGQGTQVTVSS | binds |
| His6-tagged Nb.30C7 (VHH, nanobody from a synthetic yeast-display library; also called His6-Nb.30C7; source: E. coli BL21, purified (Ni-NTA)) VHH: QVQLQESGGGLVQAGGSLRLSCAASGYTFSSNVMGWFRQAPGKEREFVAAINSGGGRTNYADSVKGRFTISRDNAKNTVYLQMNSLKPEDTAVYYCAAYGRANSSYNYGYWGQGTQVTVSS | binds |
